Measurements published in the nanobody polyreactivity screen of Harvey et al. (2022).

Test: yeast display, Sf9 membrane polyspecificity reagent, FACS + sequencing; frameworks hold sequencing errors
Outline: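 Using colony PCR, genes from sorted yeast display clones were amplified, then sequenced on MiSeq at 2 × 250 and filtered by CDR length. The clones had been stained with 10% biotinylated, detergent-solubilized Sf9 membrane reagent for 1 hour at 4 °C and sorted by FACS into low and high (top ~1%) gates on anti-HA and streptavidin fluorescence. Polyreactivity labels come from the gate of origin.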

Sequence	polyreactivity (PSR sort gate)
QVQLVESGGGLVQAGCSLRISCSASGRTFIGYAMGSYRQAPGKERELVAAICRSGGSTYYADSVKGRFTISRDNAKNTVYLQMNSLKPEDTAVYYCAKQRRDDNGGYWGQATQVTVSS	high polyreactivity
QVQLVESGGGLVQAGCSLRLSCAAPGFTLKRYAMGWYRQAPGKERELVAAISRTGGSTYHADSVKGRFTITRDNAKNTVYLQMNSLKPEVTAVYYCAAATSPGIYDHWGQGTQLTVSS	high polyreactivity
QVQLVESGGGLVQAGCSLRLSCAASGATPQNAMGWYRQAPGKERELVAAISKRGGSTYYADSVKGRFTISRDNAKNTVYLQMISLKPEDTAVYYCAKSGRNYYDDDYWGQGTQVTVSS	high polyreactivity
QVQLVESGGGLVQAGCSLRLSCAASGFIFLTNGMGWYRQAPGTERELVAVITSSTGSTSYADSVKGRFTISRDIAKNTVYLQMNSLKPEDTAVYYCDDSTGVSWYYPSGSLDYWGQGTQVNVSS	low polyreactivity
QVQLVESGGGLVQAGCSLRLSCAASGFTFGSNEMGWYRPAPGKLRELVAAINYSGVRTYYADSVKGRFTISRDKAMNNVYLQMKSLKPEETAVDFCAKTRSKPISFDYWGQGTQVTVSS	high polyreactivity
QVQLVESGGGLVQAGCSLRLSCAASGFTFQVYTMGSYRPAPGKERELVARISRRGGSTYYADSVKGRFTISRDNAKNTVYLQMNSLKPEDTAVYYCAADWYASSYRTYTFDYWGQGTQVTVSS	high polyreactivity
QVQLVESGGGLVQAGCSLRLSCAASGFTFYPYAMGWYRQAPGKERELVAAITRGGSTYYADSVKGRFTISRDNEKNTVYLQMNSLTPEDTAVYYCNAYWQGYGYDYWGQGTQVTVSS	low polyreactivity
QVQLVESGGGLVQAGCSLRLSCAASGFTFYQNVMGWYRQAPGKERELVASINRRGGSTYYADSVKGRFTISRDNAMNTVYLQKNSLKPEDTAVYYCAARTYRFYTRQLDYWGQGTQVTVSS	high polyreactivity
QVQLVESGGGLVQAGCSLRLSCAASGFTFYYNAMGWYRQAPGKERDLVAAISISGASTYYADSVKGRFTISRDNAKNTVYLQMNSLKPEDTAVFYCAKRTKGYTYHHEYGYWGQGTQVTVSS	low polyreactivity
QVQLVESGGGLVQAGCSLRLSCAASGITFVPYAIGWYRQAPGKDRELVAAITGGGSTNYADSVKGRFTISRDNAKNTVYLQMNSLNQEDTAVYYCAKHAYGYYYSRSDYWGQGTQVTVSS	low polyreactivity
QVQLVESGGGLVQAGCSLRLSCAASGRIFASNPMGWYRQAPGKERELVAGISRNGGSTFYADSVKGRFTISRDNAKNTVDVQMHSLKPEDTEVYYCARYFTHSGGYRDRIYYYWGQGTQVTVSS	low polyreactivity
QVQLVESGGGLVQAGCSLRLSCAASGRIFDGNAMGWYRQAPGKERELVAAISWTGGSTYYADSVKGRFTISRDNAKNTVYLQMNSLKPEDTAVYYCAADSGWWLEQWSWYDYWGQGTQVTVSS	low polyreactivity
QVQLVESGGGLVQAGCSLRLSCAASGRIFHLYAMGWYTQAPGKERELVAAITGRGGSTYYADSVKGRFTISRDNAKNTVYLQINCLKPEDTAVYYCASYEFGFLRYYSGRSYYYWGQGTQVTVSS	high polyreactivity
QVQLVESGGGLVQAGCSLRLSCAASGRIFWMNTMGRYRQAPGKERELVAAISFRSDDTYYADSVKGRFTISRDIAKNTVYLQMKSLKPEDTAVYYCNKAWFPYYFYRFDYWGQGTQVTVSS	high polyreactivity
QVQLVESGGGLVQAGCSLRLSCAASGRILFGYAMGWYRQAPGKERELVAAITGSGDSTYYADSVKGRFTISRDNAKNAVYLQLYSLKPEDTAVYYCATEEVYGQGNYWGHGTQVTVSS	low polyreactivity
QVQLVESGGGLVQAGCSLRLSCAASGRTFGTYTKGWYRQAPGKERELVAAIYTRDGSTYYADSVKGRFSISRDNAKNTVYLQMNSLKPDDTAFYYCNAVVRYYDWGYWDYDYWGQGTQVTVSS	low polyreactivity

Sequence	polyreactivity (PSR sort gate)
QVQLVESGGGLVQAGCSLRLSCAASGRTFNGYAMGWYRQAPGKERELVAAIASEGDTNYADSVKGRFTISRDNAKNTVYLQMNSLKPEDTAVYYCNADITRIWHFKYDYWGQGTQVTVSS	high polyreactivity
QVQLVESGGGLVQAGCSLRLSCAASGRTFNYYAMGWYRQAPGKERELVAAISVSGVRTYYADSVKGRFTISRDNAKNSVYLQMNSLKPEDTAVYYCAGLYQSVRGYVYWGQGTQVTVSS	high polyreactivity
QVQLVESGGGLVQAGCSLRLSCAASGRTLFKYAMGWYRQAPGKERELVAVISWGGGITYYADSVKGRFTISRDNAKNTVYLKMNSLKPEDTAVYYCATDSHARFYRYYWGQGTQVTVSS	low polyreactivity
QVQLVESGGGLVQAGCSLRLSCAASGSFFSSNSMGWYRQAPGTERELVAAISRSGGNTYYADSVKGRFTISRDNAKNTVYLQMNSLKPEDTAVYYCAVVGRHGQKYDWGQGNQVTVSS	high polyreactivity
QVQLVESGGGLVQAGCSLRLSCAASGSIFARYAMGWSRQAPGKERELVAAINSTVSTNYADSVKGRFTISRDNAKNTVYLQMNSLKTEDTAVYYCAVDIVRGGRDSWGQGTQVTVSS	low polyreactivity
QVQLVESGGGLVQAGCSLRLSCAASGSIFDSKAMGWYRQAPGKERELVAAISSSGARTYYADSVKGRFTISRDNAKNTVYLQMNSLKPEDTAVYYCAAKPGYKSKMDYWGQGTQVTVSS	high polyreactivity
QVQLVESGGGLVQAGCSLRLSCAASGSIFGWYAMGWYRPAPGKERELVAAITLIGGSTYYADSVKGRFTISRDNAKNTVYLQMNSLKPEDTAVYYCNAVWYWGDMDYWGQGTQVTVSS	low polyreactivity
QVQLVESGGGLVQAGCSLRLSCAASGSILWHYAMGWYRPAPGKERELVAAISGSGRTNYADSVKGGFTISRDNAKNTVYLQLNSLKPEDTAVYYGARVHGTSESKYYYWGQGTQVTVSL	low polyreactivity
QVQLVESGGGLVQAGCSLRLSCAASGSTFYYYAMGWYRQAPGKERELVAAISNRDGRTYYADSVKGRFTISRDTAKNTVYFQMNSLKPEDSAVYYCNAYSYGHYYWGHGTQVTVSS	high polyreactivity
QVQLVESGGGLVQAGCSLRLSCAASGSTYIRNAMGWYRQAPGKERELVAAISTSGSRTYYADSVKGRFTISRDNAKNTVYLQMNSLKPEDTAVYYCAKVPAGSRIEYDYCGQGTQVTVSS	high polyreactivity
QVQLVESGGGLVQAGCSLRLSCAASGTIFWYYAMGWYRQAPGKERELVAAISSGGSTYYADSVKGRFTISRDNAKNTVYLQMNSLKPEDTAVYYCNVRLRKKIQNSKYDYWGQGTQVTVSS	high polyreactivity
QVQLVESGGGLVQAGCSLRLTCAASGRTFITNAKGWYRQAPVKERELVAAISSGTGGRTNYADSVKGRFTISRDNAKNTVYLQMNSRKPEDTAVYYCAARSTKYYPYGYWGQGTQVTLSS	high polyreactivity
QVQLVESGGGLVQAGCSLRVSSAASGRIFVYYAMGRYRQAPGKERELVAAIRWTGGSTYYADSVKGRFTISRDNAKNTVYLQMNSVKPEDTAVYYCATVNRYCHFNYWGQGTQVTVSS	high polyreactivity
QVQLVESGGGLVQAGFSLRLSCAASGSIFFIYDKGWYRQAPGKERELVADITSGGGSTFYADSVKGRFTISRDNAKNTVYLQMNSLKPEDTAVYYCATDDHDQPGGQLYISEVNYWGQGTQVTVSS	low polyreactivity
QVQLVESGGGLVQAGGCLRLSCAASGFTFPFYAMGWYRQAPGKERELVAAITSRGGSTYYADSVKGRFTISRDNAKNTVYLQMNSLKPEHTAVYYCAARYTPRRYYYWGQGTQVTVSS	high polyreactivity
QVQLVESGGGLVQAGGGLRLSCAASGRIFSPYAMGWDRQSPGKEMELVAAIRRSGVDTYYADSVKGRFTISRDNAKNTVYLQINSLKPEDTAVYYCAADPYWFFPHYDSWGQGTQVTVSS	low polyreactivity
